According to the supplement of paper PMC12042874:
± gives the uncertainty stated by the source.

Assay: amyloid nucleation score (Sup35N fusion, yeast selection) (log enrichment); library NNK2; higher = more nucleation; inactive = no reads after selection
Method in brief: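 In psi-negative yeast, Sup35N fusions carrying peptides of 20 random codons were induced with 100 μM copper sulfate for 24 hours. The cells then grew 7 days at 30°C on medium lacking adenine and uracil, and plasmid inserts from input and output were Illumina-sequenced, excluding sequences with under 100 input reads. Nucleation score is the DiMSum log enrichment of output over input reads, centred on the mode score of non-aggregating sequences.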
RVTKSVKLGPEFMLNHGRLT showed an amyloid nucleation score of 3.33 ± 0.061. With ESHTGYNIPVIRSHPPYNRS the amyloid nucleation score was -0.869 ± 0.64. GVHTLWNRMKWPIENRVYGS gave an amyloid nucleation score of 1.59 ± 0.3. Substance YKRHVGLRRNTLRQGYLLWF has an amyloid nucleation score of -0.547 ± 1.1. For LRLLQVVGVCCSGTWVDGCW, the amyloid nucleation score was 6.074 ± 0.04. For LAKGPSQDYGAVPHKVMFHS, the amyloid nucleation score was 0.961 ± 0.58. For PRRYLTIPLSFFLHNSIIGI, the amyloid nucleation score was “inactive”. In the case of NYLASGQIIWLGYPSRSLSL, the amyloid nucleation score is reported as “inactive”. In the case of FIFGCTCNILFICASSRFLQ, the amyloid nucleation score is reported as 2.92 ± 0.11. For GLCYKFVRFSYA, the amyloid nucleation score was 2.16 ± 0.1. For YFDTYLMTSRGCSIFMAQFR, the amyloid nucleation score was 1.67 ± 0.28. In the case of CRRFSEYNVLCSDLNPIMVL, the amyloid nucleation score is reported as 0.404 ± 0.66. For KHIWAMNGCYSLLLKNPALV, the amyloid nucleation score was -0.649 ± 1.1. For GEDTFYSISCYVQMLL, the amyloid nucleation score was 1.49 ± 0.08. ALCYWRNSPSVGRRQWRRQC gave an amyloid nucleation score of 6.654 ± 0.057. VYRLTRVISEWRSILVLVWT showed an amyloid nucleation score of 0.328 ± 0.42. With WMGNLLGVRFMIKMIGYRAL the amyloid nucleation score was “inactive”. With IISSYSATEARTMFIKLHCL the amyloid nucleation score was -0.606 ± 0.54. Work on CGTLINADRPAWH yielded an amyloid nucleation score of -0.593 ± 0.35. For FMHNHGPGLDTYAYGTR, the amyloid nucleation score was -1.13 ± 0.64. FCLDLWCKGFLYYTQCVNGW gave an amyloid nucleation score of 4.08 ± 0.063. Substance LLWNVGIVYSHMQVFVMRRY has an amyloid nucleation score of 1.23 ± 0.13. In the case of SCKNMGHVWFIVDVHHNRRL, the amyloid nucleation score is reported as “inactive”. SLCREVPFLWDFCL gave an amyloid nucleation score of 0.163 ± 0.63. With VLAAT the amyloid nucleation score was -0.815 ± 0.55. HVYAVRSLLYGGWGRH gave an amyloid nucleation score of 4.46 ± 0.051. With YTGYGTWNLNIRNACNRVSW the amyloid nucleation score was “inactive”. RSSASRNQFKESCFRAHQFP showed an amyloid nucleation score of -0.339 ± 0.27. In the case of ITYYHCVSHARNTKNQLTDF, the amyloid nucleation score is reported as “inactive”. With NYWGVARKFEFSDECLFLDG the amyloid nucleation score was 0.596 ± 0.54. YIAIEYLFSFRGFRGTGVMG gave an amyloid nucleation score of 0.034 ± 0.63. In the case of VFFISEIRPKFFLTLPRTAL, the amyloid nucleation score is reported as 4.87 ± 0.096. ETGSIVVKMLPSRWGSLRLV gave an amyloid nucleation score of 3.19 ± 0.11. For IFMRNRV, the amyloid nucleation score was -0.524 ± 0.64. LLYEPFVWVYKHRYVVTGYS showed an amyloid nucleation score of -1.76 ± 0.76. In the case of KSCGLLAYDT, the amyloid nucleation score is reported as “inactive”. Substance QSTMDCT has an amyloid nucleation score of 0.082 ± 1.1. With TFIFWGTAELVNNNLGLRC the amyloid nucleation score was -0.479 ± 0.48. Substance GIYFIYLSM has an amyloid nucleation score of 5.918 ± 0.059. For FSPTGSITWNCIRYYLVTRS, the amyloid nucleation score was -0.279 ± 0.33. In the case of AVRLSEV, the amyloid nucleation score is reported as 0.421 ± 0.38. NQSWRVVRQVCVEETRMMCG gave an amyloid nucleation score of 0.89 ± 0.23. LTVRS showed an amyloid nucleation score of -0.42 ± 0.76. FCSPCSFLINSY showed an amyloid nucleation score of 6.514 ± 0.048. For TYSGLKNARWEFWMKSFDYF, the amyloid nucleation score was -1.12 ± 0.5. In the case of EGVKF, the amyloid nucleation score is reported as 0.436 ± 0.8. For GSLTKSLSKTTQLR, the amyloid nucleation score was “inactive”. For VGIRCLRFFNMIVLEG, the amyloid nucleation score was -0.059 ± 0.55. With TLSKYCEDKFEWFCIAVICR the amyloid nucleation score was 6.95 ± 0.04. GMSERRWSCQLVGAVHDMAA gave an amyloid nucleation score of 1.17 ± 0.14. With HGAVGCAS the amyloid nucleation score was -0.002 ± 1. With CGVMKNYDESKTYGLGLG the amyloid nucleation score was 3.51 ± 0.1. For LRTISCIITLVGWITASTKH, the amyloid nucleation score was 0.124 ± 0.62. For RVLSIRSFP, the amyloid nucleation score was 1.64 ± 0.13. In the case of FFDGSVNQYESRYHGCD, the amyloid nucleation score is reported as -0.37 ± 0.76. GSPNLVSV showed an amyloid nucleation score of 0.401 ± 0.56. With GKVGNNTLSVYGMDTT the amyloid nucleation score was “inactive”. For SYYFLLLFVQT, the amyloid nucleation score was -0.017 ± 0.76. ELDWKASTIGKMNHIRLERR gave an amyloid nucleation score of 0.145 ± 0.23. Substance KVFVAYGMAVMLFYICHSK has an amyloid nucleation score of 4.561 ± 0.037. YFRSYLLHTLLG showed an amyloid nucleation score of 0.479 ± 0.45. In the case of YAVLIMYYALAKAWWSLKYG, the amyloid nucleation score is reported as -0.002 ± 1. LSNEAWFGQGMLDGWGGGEG gave an amyloid nucleation score of 0.514 ± 0.56. YRLIYFVVLFEFLSVNR gave an amyloid nucleation score of -0.089 ± 0.79. Work on HACGIVHRPLLRD yielded an amyloid nucleation score of -0.191 ± 0.33. With ILDCLRVRESDHVSGRNRVC the amyloid nucleation score was 0.509 ± 0.37. For WLEDAS, the amyloid nucleation score was -0.557 ± 1.1. SELWYVPLANVE gave an amyloid nucleation score of 0.242 ± 0.5. Substance RPFKYCVRRLANRA has an amyloid nucleation score of 0.135 ± 0.65. HEMVTRQRLVTSRQYLSLGV gave an amyloid nucleation score of 1.11 ± 0.29. In the case of IGWTFIHVPCSAQRFVAIVS, the amyloid nucleation score is reported as 0.827 ± 0.51. TLPSPIRYRVNTNNRM gave an amyloid nucleation score of 0.397 ± 0.54. ERRRFRVDRKVLAFFYVSGT gave an amyloid nucleation score of 0.046 ± 0.37. GMNLNLPTQTHTSVRHNRG gave an amyloid nucleation score of 2.75 ± 0.14. For VKVVVNSSDNCVSIDWSYGR, the amyloid nucleation score was 2.14 ± 0.17. In the case of GKMTPLLVNQTVSYCMLSSM, the amyloid nucleation score is reported as 6.273 ± 0.035. For NFRGGFWPVNMNTRLIWSGV, the amyloid nucleation score was -1.52 ± 0.62. With YSSDYILSFNVNNTMVVSFE the amyloid nucleation score was 5.59 ± 0.078. Work on DCHRNGSFRGKDGDVLYRSS yielded an amyloid nucleation score of -0.397 ± 0.78. In the case of CIRVGSQNVMFPIDSEPSDL, the amyloid nucleation score is reported as 0.482 ± 0.46. VSLLCIFVAYGNWVMNGDDP showed an amyloid nucleation score of -0.136 ± 0.62. Substance LGTIGYVDCFIDSITCYMVL has an amyloid nucleation score of 7.953 ± 0.028. VYIFQGMR showed an amyloid nucleation score of -0.302 ± 0.46. Work on NFSYNRCVR yielded an amyloid nucleation score of 0.383 ± 0.49. GHGKPTGYYGDYENQTVLY showed an amyloid nucleation score of -0.25 ± 0.61. With RSQSSYRIVQWIMYTCDNVL the amyloid nucleation score was “inactive”. In the case of PLMRGECGALLRLMFNTVS, the amyloid nucleation score is reported as “inactive”. ISTYSLCLLSWWH showed an amyloid nucleation score of 9.469 ± 0.054. In the case of CKYVYFRPTRASSSWHVIFL, the amyloid nucleation score is reported as 2.93 ± 0.076. RAMLNLKE gave an amyloid nucleation score of 2.46 ± 0.053. For YSLLILAPDFLNRHSSLGCI, the amyloid nucleation score was -0.226 ± 1.1. Substance FTWHLLYTNDCPLVIYMMEL has an amyloid nucleation score of -0.403 ± 0.74. Substance AQLVGVCFRRFCQLSTSLCY has an amyloid nucleation score of -1.18 ± 0.64. QLGRYLCHTIFKHRLYICTW gave an amyloid nucleation score of 0.113 ± 1.1. Work on FILVCWISIFGLFMIPGMWD yielded an amyloid nucleation score of -1.13 ± 0.64. Work on WRGGGLQLVQCDYRTLDNTQ yielded an amyloid nucleation score of -0.409 ± 0.37. CSFNKTALIAFNSNGGEYEH showed an amyloid nucleation score of -2.66 ± 0.75. Substance ACNNRMISGIRTTDCYIYRP has an amyloid nucleation score of -0.261 ± 0.33. With NCRRMFGYNHCSHLCPLRVW the amyloid nucleation score was -0.653 ± 1.1. In the case of KLMLSALFLKVPAIIGRYRW, the amyloid nucleation score is reported as 0.736 ± 0.8. SDVELWRYG showed an amyloid nucleation score of 2.55 ± 0.065. GRLNPPLLLRIRSVSYAIPV gave an amyloid nucleation score of 0.783 ± 0.58. Work on WGHANFAEVWNDP yielded an amyloid nucleation score of 0.385 ± 0.6. With SENGRLLLGLFGKRWDVNDV the amyloid nucleation score was -0.097 ± 0.79. Work on MKMEY yielded an amyloid nucleation score of 0.31 ± 0.42. TCYTKPLNEYYE showed an amyloid nucleation score of 0.011 ± 0.56. TCGLSIVDYWSLR gave an amyloid nucleation score of -0.99 ± 1.1. Substance LFVSSDRHRSDESSGDACCL has an amyloid nucleation score of -0.494 ± 0.76. Work on VLDSWRR yielded an amyloid nucleation score of -0.963 ± 1.1. Work on YTSWDMYIEFIMSLQMYSVG yielded an amyloid nucleation score of -0.729 ± 1.1. For HKKAFVCPRCMVPCRRLWHG, the amyloid nucleation score was 0.232 ± 0.25. For YTKFANSHFIGLNRSCWSNE, the amyloid nucleation score was -0.238 ± 0.8. With PTSDMWSCNNL the amyloid nucleation score was 0.961 ± 0.81. With FNMHI the amyloid nucleation score was 0.8 ± 0.8. For CVPVYVKRIECHLPSGCTAV, the amyloid nucleation score was -0.345 ± 0.3. Work on ETKKLYDRAARERRCCRNHY yielded an amyloid nucleation score of 0.078 ± 0.3. In the case of SVYGKFLYF, the amyloid nucleation score is reported as 2.23 ± 0.11. MNIDLHTHPSRSKMLCTTAN gave an amyloid nucleation score of 0.914 ± 0.55. With MYYYSFSDTTLWEISPQLAT the amyloid nucleation score was -0.582 ± 1.1. In the case of SSSNLG, the amyloid nucleation score is reported as “inactive”. Work on RDHYCFYRYRKGEFNNTRHP yielded an amyloid nucleation score of -0.147 ± 0.39. DALVFSPCRALWTLLSVCEG showed an amyloid nucleation score of 0.896 ± 0.3. Substance YYNKNLFCLFSVLEYKTTFL has an amyloid nucleation score of 4.09 ± 0.056. FTSASQFNNTGFCLI gave an amyloid nucleation score of -0.23 ± 0.79. For GRRHVNFCSRTDYRAGPHRY, the amyloid nucleation score was 0.112 ± 1.1. For LTHIKDRVELLLGGQFISDT, the amyloid nucleation score was 0.011 ± 1.1.
